Measurements reported in patent US6399570B1, “Antimicrobial/endotoxin neutralizing polypeptide” (priority 1999, dated 2002).

Legend:
[1] = tested on: E. coli 0111; assay: Time course of E. coli growth in the presence of LF polypeptides; assay type: cell-based; settings: 50 μM, seven hour time course, OD 600 nm
Experimental: To investigate whether regions of the molecule involved in GAG binding activity of the 6 kDa LF polypeptide (generated from pepsin digestion) are also involved in the antimicrobial activity of the 6 kDa polypeptide of the present invention, polypeptides of various lengths corresponding to the N-terminal amino acid sequence of LF were tested for the ability to inhibit the growth of E. coli 0111. Overnight cultures were grown over a seven hour time course in the presence of 50 μM of either LF, a 33-mer corresponding to amino acids 1-33 of LF, a 26-mer corresponding to […] of LF, a 27-mer corresponding to amino acids 1-27 of LF. […] This is consistent with LF and the 33-mer inhibiting bacterial growth via different mechanisms. […] The failure of the 26-mer and the 27-mer to inhibit culture growth emphasizes the importance of retaining both clusters of basic residues, at the termini of the 33-mer, for the antimicrobial functionality of polypeptides derived from the N-terminal LF sequence.
Time course of E. coli growth in the presence of LF polypeptides. E. coli cells, clinical isolate strain 0111, were obtained from ATCC. […] Culture growth was monitored spectrophotometrically by measuring optical density at 600 nm at each indicated time point.

[2] = tested on: lipid A from E. coli 0113; assay: LAL assay, neutralization of lipid A endotoxin activity (FIG. 6); assay type: biochemical; settings: lipid A 30 ng/ml
Experimental: The lipid A region of the LPS molecule is primarily responsible for the inflammatory and toxic effects of LPS. When LPS is released from the microbe, the lipid A portion may become more accessible. The following assays were performed to determine the potential of various amino-terminal LF polypeptides to neutralize the endotoxic activity of the lipid A portion of LPS. LF, the 6 kDa fragment of LF, LF-33, LF-27, and polymyxin B were each tested for the ability to neutralize the endotoxin activity of lipid A from E. coli 0113 (30 ng/ml), using a LAL assay. […] The endotoxin activity of the smaller fragments of LF indicate that endotoxin-neutralizing activity of these small polypeptides is masked when in the context of the intact LF molecule.

B1: LF: 80 kDa iron-binding glycoprotein, purified from human colostrum (protein, UniProt P02788 20-710, looked up)
Lactotransferrin: GRRRSVQWCAVSQPEATKCFQWQRNMRKVRGPPVSCIKRDSPIQCIQAIAENRADAVTLDGGFIYEAGLAPYKLRPVAAEVYGTERQPRTHYYAVAVVKKGGSFQLNELQGLKSCHTGLRRTAGWNVPIGTLRPFLNWTGPPEPIEAAVARFFSASCVPGADKGQFPNLCRLCAGTGENKCAFSSQEPYFSYSGAFKCLRDGAGDVAFIRESTVFEDLSDEAERDEYELLCPDNTRKPVDKFKDCHLARVPSHAVVARSVNGKEDAIWNLLRQAQEKFGKDKSPKFQLFGSPSGQKDLLFKDSAIGFSRVPPRIDSGLYLGSGYFTAIQNLRKSEEEVAARRARVVWCAVGEQELRKCNQWSGLSEGSVTCSSASTTEDCIALVLKGEADAMSLDGGYVYTAGKCGLVPVLAENYKSQQSSDPDPNCVDRPVEGYLAVAVVRRSDTSLTWNSVKGKKSCHTAVDRTAGWNIPMGLLFNQTGSCKFDEYFSQSCAPGSDPRSNLCALCIGDEQGENKCVPNSNERYYGYTGAFRCLAENAGDVAFVKDVTVLQNTDGNNNEAWAKDLKLADFALLCLDGKRKPVTEARSCHLAMAPNHAVVSRMDKVERLKQVLLHQQAKFGRNGSDCPDKFCLFQSETKNLLFNDNTECLARLHGKTTYEKYLGPQYVAGITNLKKCSTSPLLEACEFLRK
In the case of B1, the “growth of E. coli 0111 cultures” value [1] is reported as “transient growth suppressing effect” and the “lipid A neutralizing activity” value [2] is reported as “no appreciable lipid A neutralizing activity”.
